Test results published in patent US20250000936A1, “TREATMENT OF GEOGRAPHIC ATROPHY” (Apellis Pharmaceuticals, Inc., priority 2021, published 2025).

Key:
[1] = system: patients with geographic atrophy (GA) secondary to age-related macular degeneration (AMD); experiment: DERBY and OAKS combined: GA lesion growth and visual function; type: in vivo, human; conditions: for reduction in GA lesion growth from baseline compared to sham: combined analysis (FIG. 30); for reduction in lesion growth, study eye vs untreated fellow eye: bilateral GA, 12 months (FIG. 7D); for reduction in foveal lesion growth vs pooled sham / reduction in extrafoveal GA lesion growth vs pooled sham: month 18; for reduction of GA lesion growth vs pooled sham: months 18-24
Excerpt: This Example describes 12-month results from two Phase 3 multi-center, randomized, double-masked, sham-controlled studies (“DERBY” and “OAKS”) to compare the efficacy and safety of intravitreal APL-2 (pegcetacoplan, also referred to as “Study Drug” in this Example) therapy with sham injections in patients with geographic atrophy (GA) secondary to age-related macular degeneration (AMD).
To participate in the studies, subjects must have been diagnosed with GA of the macula secondary to AMD in the study eye. At screening, male and female subjects were required to fulfill all of the following inclusion criteria to be eligible for participation in the study. If both eyes met the inclusion criteria, the eye with the worst normal luminance visual acuity at the screening visit was designated as the study eye. If both eyes had the same visual acuity, the right eye was selected as the study eye. Ocular-specific inclusion criteria applied to the study eye only, unless otherwise specified.
The design of the DERBY and OAKS studies are schematically depicted in FIG. 2. Each subject was assigned a unique screening number after signing the informed consent. Subjects who completed the study screening assessments and met all the eligibility criteria entered the study and were randomized on Day 1. As part of the screening process, the reading center evaluated FAF, OCT, Digital Color Fundus Photograph (DCFP), Near Infrared Reflectance (NIR), and fluorescein angiography (FA) to provide an objective assessment of subject eligibility. Subjects were randomized 2:2:1:1 to receive treatment with Study Drug monthly (PM), Study Drug every other month (PEOM), sham injection monthly (SM) or sham injection every other month (SEOM), respectively.
The Study Drug was pegcetacoplan (also referred to as “APL-2”) (see FIG. 1), which was provided for intravitreal injection at 15 mg/0.1 mL (150 mg/mL) as a sterile, isotonic solution of pegcetacoplan in acetate-buffer, pH 5.0, containing trehalose, supplied in stoppered glass vials.
The primary endpoint in the studies was the change from baseline to Month 12 in total area of GA lesion(s) in the study eye (in mm^2) based on Fundus Autofluorescence (FAF). Key secondary endpoints included change from baseline in the mean threshold sensitivity of all points (study eye) assessed by mesopic microperimetry at Month 24; change from baseline in monocular maximum reading speed (study eye), at Month 24 as assessed by MNRead or Radner reading charts (in select sites); change from baseline in mean FRI Index score (subject-level assessment) at Month 24; and change from baseline in NL-BCVA score (study eye) at Month 24 as assessed by Early Treatment Diabetic Retinopathy Study (ETDRS) chart. Additional secondary endpoints included change from baseline in LL-BCVA score (study eye) over time as assessed by ETDRS chart; change from baseline in the total area of GA lesion(s) in the study eye (in mm^2) as assessed by FAF over time other than Month 12; change from baseline in monocular critical print size (study eye), as assessed by MNRead or Radner reading charts (in select sites) over time; change from baseline in the NEI VFQ-25 distance activity subscale score (in select sites) (subject level assessment) over time; change from baseline in the number of scotomatous points assessed by mesopic microperimetry over time; and change from baseline in the mean threshold sensitivity within 500 microns outside the GA lesion, (perilesional points) assessed by mesopic microperimetry over time.
Two sham treatment arms (SM and SEOM) were pooled into a single control (Sham) group for analyses.
Subjects were analyzed in the treatment arm assigned at randomization.
Unless otherwise noted, hypothesis testing and estimation of treatment effects will be performed with a mixed effect model for repeated measure (MMRM) that includes data from all three treatment arms (PM, PEOM, and Sham). […]

[2] = system: patients with geographic atrophy (GA) secondary to age-related macular degeneration (AMD); experiment: DERBY and OAKS combined: safety; conditions: for CNV type on FA at eAMD study visit: Active leakage with low likelihood of CNV / CNV type on FA at eAMD study visit: Classic / CNV type on FA at eAMD study visit: Classic + occult / CNV type on FA at eAMD study visit: Occult / investigator-reported events of eAMD, double-layer sign (DLS) present in the study eye / investigator-reported events of eAMD, CNV present in the fellow eye / investigator-reported events of eAMD, CNV absent in the fellow eye / investigator-reported events of eAMD, double-layer sign (DLS) absent in the study eye: through month 18; for Investigator-determined new-onset eAMD in fellow eyes: through 18 months; for combined rate of new-onset exudations: month 24
Description: All randomized subjects returned every month to the clinical site for assessments and additional pegcetacoplan or sham injections according to their randomization scheme until Month 12. From Month 12 onwards, subjects return to the clinical site based on their randomized treatment schedule (monthly or EOM) and follow the treatment regimen and assessments outlined in the Visit Schedule until Month 24. Safety was assessed throughout the study by a number of evaluations including: monitoring of AEs, preinjection and postinjection monitoring, blood and urine samples collected, physical examination, vital signs, and follow-up phone calls. Blood samples were also be collected for anti-therapeutic antibodies, genotyping, and clinical repository (if the subject consented to this portion).
The Safety set consisted of all subjects randomized who received at least one injection of pegcetacoplan or sham. Subjects were analyzed according to the actual treatment received. […] This population was used for all safety analyses.

[3] = combined, PEOM (every other month), N=21 events
[4] = combined, PM (monthly), N=26 events
[5] = combined, between months 18 and 24

## Poly(oxy-1,2-ethanediyl), α-hydro-ω-hydroxy-, 15,15′-diester with N-acetyl-L-isoleucyl-L-cysteinyl-L-valyl-1-methyl-L-tryptophyl-L-glutaminyl-L-α-aspartyl-L-tryptophylglycyl-L-alanyl-L-histidyl-L-arginyl-L-cysteinyl-L-threonyl-2-[2-(2-aminoethoxy) ethoxy]acetyl-N^6-carboxy-L-lysinamide cyclic (2->12)-(disulfide) [pegcetacoplan]
[1]; EOM, p<0.0001
  reduction in GA lesion growth from baseline compared to sham: 24%
[1]; monthly, p<0.0001
  reduction in GA lesion growth from baseline compared to sham: 30%
[1]; combined, 24 months (FIG. 31, NL-BCVA)
  key secondary endpoints measuring visual function, pegcetacoplan vs sham: no clinically meaningful difference
[1]; combined, every other month
  reduction in lesion growth, study eye vs untreated fellow eye: 11%
[1]; combined, monthly
  reduction in lesion growth, study eye vs untreated fellow eye: 16%
[1]; combined, every other month, month 12, p<0.0012
  reduction in GA lesion growth vs pooled sham: 14%
[1]; combined, every other month, p 0.0069
  reduction in foveal lesion growth vs pooled sham: 13%
[1]; combined, every other month, p=0.0006
  reduction in extrafoveal GA lesion growth vs pooled sham: 21%
[1]; combined, every other month, months 0-6 segment
  reduction in GA lesion growth vs pooled sham: 12%
[1]; combined, every other month, months 12-18 segment
  reduction in GA lesion growth vs pooled sham: 17%
[1]; combined, extrafoveal lesions, EOM
  reduction of GA lesion growth vs pooled sham: 28%
[1]; combined, extrafoveal lesions, every other month, 12 months, p=0.0002
  reduction in GA lesion growth vs pooled sham: 23%
[1]; combined, extrafoveal lesions, monthly, 12 months, p<0.0001
  reduction in GA lesion growth vs pooled sham: 26%
[1]; combined, extrafoveal lesions, monthly
  reduction of GA lesion growth vs pooled sham: 28%
[1]; combined, foveal lesions, EOM
  reduction of GA lesion growth vs pooled sham: 28%
[1]; combined, foveal lesions, monthly
  reduction of GA lesion growth vs pooled sham: 34%
[1]; combined, monthly, month 12, p<0.0001
  reduction in GA lesion growth vs pooled sham: 17%
[1]; combined, monthly, p<0.0001
  reduction in extrafoveal GA lesion growth vs pooled sham: 26%
[1]; combined, monthly, p=0.0070
  reduction in foveal lesion growth vs pooled sham: 13%
[1]; combined, monthly, months 0-6 segment (FIG. 12B)
  reduction in GA lesion growth vs pooled sham: 13%
[1]; combined, monthly, months 12-18 segment (FIG. 12B)
  reduction in GA lesion growth vs pooled sham: 21%
[2]; both Phase 3 studies, 12 months
  tolerability: well tolerated
[2]; combined, 12 months
  events of retinal vasculitis or retinal vein occlusion: No events
[2]; combined, 12 months, thirteen events
  intraocular inflammation events: 0.21 % per injection
[2]; [3]
  CNV type on FA at eAMD study visit: Active leakage with low likelihood of CNV: 0 n (%)
  CNV type on FA at eAMD study visit: Classic: 1 (4,8%) n (%)
  CNV type on FA at eAMD study visit: Classic + occult: 0 n (%)
  CNV type on FA at eAMD study visit: Occult: 20 (95.2%) n (%)
[2]; combined, PEOM (every other month), 339 patients without baseline fellow eye CNV
  Investigator-determined new-onset eAMD in fellow eyes: 13 (3.8%) n (%)
[2]; [4]
  CNV type on FA at eAMD study visit: Active leakage with low likelihood of CNV: 3 (11.5%) n (%)
  CNV type on FA at eAMD study visit: Classic: 1 (3.8%) n (%)
  CNV type on FA at eAMD study visit: Classic + occult: 0 n (%)
  CNV type on FA at eAMD study visit: Occult: 22 (84.6%) n (%)
[2]; combined, PM (monthly), 335 patients without baseline fellow eye CNV
  Investigator-determined new-onset eAMD in fellow eyes: 12 (3.6%) n (%)
[2]; [5]
  cases of endophthalmitis: No cases
  serious adverse events of ischemic optic neuropathy: no serious adverse events
[2]; combined, every other month, 12 months
  pooled rate of new-onset exudations (investigator-determined eAMD), patients: 4.1%
[2]; combined, every other month, month 18, 26/420 patients
  rate of new-onset exudations: 6.2%
[2]; combined, every other month
  combined rate of new-onset exudations: 6.7%
[2]; combined, every other month, 6/73 patients
  investigator-reported events of eAMD, double-layer sign (DLS) present in the study eye: 8.2%
[2]; combined, every other month, 8/81 patients
  investigator-reported events of eAMD, CNV present in the fellow eye: 9.9%
[2]; combined, every other month, 18/338 patients
  investigator-reported events of eAMD, CNV absent in the fellow eye: 5.3%
[2]; combined, every other month, 20/345 patients
  investigator-reported events of eAMD, double-layer sign (DLS) absent in the study eye: 5.8%
[2]; combined, month 18
  events of retinal vasculitis or retinal vein occlusion: No events
  rate of intraocular inflammation: 0.23 % per injection
[2]; combined, monthly, 12 months
  pooled rate of new-onset exudations (investigator-determined eAMD), patients: 6.0%
[2]; combined, monthly, month 18, 40/419 patients
  rate of new-onset exudations: 9.5%
[2]; combined, monthly
  combined rate of new-onset exudations: 11.9%
[2]; combined, monthly, 8/79 patients
  investigator-reported events of eAMD, double-layer sign (DLS) present in the study eye: 10.1%
[2]; combined, monthly, 8/84 patients
  investigator-reported events of eAMD, CNV present in the fellow eye: 9.5%
[2]; combined, monthly, 32/335 patients
  investigator-reported events of eAMD, CNV absent in the fellow eye: 9.6%
[2]; combined, monthly, 32/336 patients
  investigator-reported events of eAMD, double-layer sign (DLS) absent in the study eye: 9.5%
[2]; combined, over 24 months
  events of occlusive vasculitis or retinitis: No events
  rate of intraocular inflammation: 0.24 % per injection
